Blank lines part the entries; values can stand above or below the binder they belong to.
Tests used:
Assay in all cases: SPR
adrenodoxin [1] = biological target: T1, adrenodoxin (human, UniProt P10109 61-184)
T1 sequence (looked up): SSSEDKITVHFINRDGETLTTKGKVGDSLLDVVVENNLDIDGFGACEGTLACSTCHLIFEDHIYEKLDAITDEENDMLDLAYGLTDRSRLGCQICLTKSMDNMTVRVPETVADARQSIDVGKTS

adrenodoxin [2] = biological target: T1, adrenodoxin; remark: listed apart in the source
adrenodoxin [3] = biological target: T1, adrenodoxin; remark: listed apart in the source
adrenodoxin [4] = biological target: T1, adrenodoxin; remark: listed apart in the source
adrenodoxin [5] = biological target: T1, adrenodoxin; remark: listed apart in the source
adrenodoxin [6] = biological target: T1, adrenodoxin; remark: listed apart in the source
adrenodoxin [7] = biological target: T1, adrenodoxin; remark: listed apart in the source
adrenodoxin [8] = biological target: T1, adrenodoxin; remark: listed apart in the source
adrenodoxin [9] = biological target: T1, adrenodoxin; remark: listed apart in the source

- fold change of Kd with corticosterone against ligand-free (adrenodoxin [1]): 1.7 fold
- fold increase of Kd with 11-deoxycortisol against ligand-free (adrenodoxin [2]): 4.7 fold
- fold increase of Kd with 11-deoxycorticosterone against ligand-free (adrenodoxin [3]): 11 fold
- fold increase of koff with 11-deoxycorticosterone against ligand-free (adrenodoxin [3]): 7 fold
B1: cytochrome P450 CYP11B2 (aldosterone synthase) (enzyme, human, UniProt P19099 25-503, looked up)
chain: GTRAARAPRTVLPFEAMPQHPGNRWLRLLQIWREQGYEHLHLEMHQTFQELGPIFRYNLGGPRMVCVMLPEDVEKLQQVDSLHPCRMILEPWVAYRQHRGHKCGVFLLNGPEWRFNRLRLNPDVLSPKAVQRFLPMVDAVARDFSQALKKKVLQNARGSLTLDVQPSIFHYTIEASNLALFGERLGLVGHSPSSASLNFLHALEVMFKSTVQLMFMPRSLSRWISPKVWKEHFEAWDCIFQYGDNCIQKIYQELAFNRPQHYTGIVAELLLKAELSLEAIKANSMELTAGSVDTTAFPLLMTLFELARNPDVQQILRQESLAAAASISEHPQKATTELPLLRAALKETLRLYPVGLFLERVVSSDLVLQNYHIPAGTLVQVFLYSLGRNAALFPRPERYNPQRWLDIRGSGRNFHHVPFGFGMRQCLGRRLAEAEMLLLLHHVLKHFLVETLTQEDIKMVYSFILRPGTSPLLTFRAIN

- fold increase of koff with 11-deoxycortisol against ligand-free (adrenodoxin [2]): ~3.2 fold
- fold increase of kon with 11-deoxycortisol against ligand-free (adrenodoxin [2]): 4 fold
- fold increase of Kd with 11-deoxycorticosterone against ligand-free (adrenodoxin [3]): 2.4 fold
- fold increase of koff with 11-deoxycorticosterone against ligand-free (adrenodoxin [3]): 4.4 fold
- fold increase of kon with 11-deoxycorticosterone against ligand-free (adrenodoxin [3]): ~2 fold
B2: cytochrome P450 CYP11B1 (11ß-hydroxylase) (enzyme, human)
chain: VPRTVLPFEAMPRRPGNRWLRLLQIWREQGYEDLHLEVHQTFQELGPIFRYDLGGAGMVCVMLPEDVEKLQQVDSLHPHRMSLEPWVAYRQHRGHKCGVFLLNGPEWRFNRLRLNPEVLSPNAVQRFLPMVDAVARDFSQALKKKVLQNARGSLTLDVQPSIFHYTIEASNLALFGERLGLVGHSPSSASLNFLHALEVMFKSTVQLMFMPRSLSRWTSPKVWKEHFEAWDCIFQYGDNCIQKIYQELAFSRPQQYTSIVAELLLNAELSPDAIKANSMELTAGSVDTTVFPLLMTLFELARNPNVQQALRQESLAAAASISEHPQKATTELPLLRAALKETLRLYPVGLFLERVASSDLVLQNYHIPAGTLVRVFLYSLGRNPALFPRPERYNPQRWLDIRGSGRNFYHVPFGFGMRQCLGRRLAEAEMLLLLHHVLKHLQVETLTQEDIKMVYSFILRPSMFPLLTFRAIN

- fold change of koff with cholesterol against ligand-free (adrenodoxin [4]): ~1.5 fold
- fold increase of kon with cholesterol against ligand-free (adrenodoxin [4]): 4 fold
- fold increase of Kd with pregnenolone against cholesterol (adrenodoxin [5]): ~21 fold
- fold decrease of kon with 25-hydroxycholesterol against ligand-free (adrenodoxin [6]): 2 fold
- fold increase of Kd with 25-hydroxycholesterol against ligand-free (adrenodoxin [6]): 4.6 fold
- fold decrease of kon with 20S-hydroxycholesterol against ligand-free (adrenodoxin [7]): 2 fold
- fold increase of Kd with 20S-hydroxycholesterol against ligand-free (adrenodoxin [7]): 3.1 fold
- fold increase of Kd with 22R-hydroxycholesterol against cholesterol (adrenodoxin [8]): 4 fold
- fold decrease of kon with 20R,22R-dihydroxycholesterol against ligand-free (adrenodoxin [9]): 2 fold
- fold increase of Kd with 20R,22R-dihydroxycholesterol against cholesterol (adrenodoxin [9]): ~10 fold
- fold increase of Kd with 20R,22R-dihydroxycholesterol against ligand-free (adrenodoxin [9]): ~3.4 fold
- fold increase of koff with 20R,22R-dihydroxycholesterol against ligand-free (adrenodoxin [9]): ~1.8 fold
B3: cytochrome P450 CYP11A1 (cholesterol side chain cleavage enzyme) (enzyme, human)
chain: STRSPRPFNEIPSPGDNGWLNLYHFWRETGTHKVHLHHVQNFQKYGPIYREKLGNVESVYVIDPEDVALLFKSEGPNPERFLIPPWVAYHQYYQRPIGVLLKKSAAWKKDRVALNQEVMAPEATKNFLPLLDAVSRDFVSVLHRRIKKAGSGNYSGDISDDLFRFAFESITNVIFGERQGMLEEVVNPEAQRFIDAIYQMFHTSVPMLNLPPDLFRLFRTKTWKDHVAAWDVIFSKADIYTQNFYWELRQKGSVHHDYRGILYRLLGDSKMSFEDIKANVTEMLAGGVDTTSMTLQWHLYEMARNLKVQDMLRAEVLAARHQAQGDMATMLQLVPLLKASIKETLRLHPISVTLQRYLVNDLVLRDYMIPAKTLVQVAIYALGREPTFFFDPENFDPTRWLSKDKNITYFRNLGFGWGVRQCLGRRIAELEMTIFLINMLENFRVEIQHLSDVGTTFNLILMPEKPISFTFWPFNQEATQQ
